In publication PMC6220978, “Induced conformational changes activate the peptidoglycan synthase PBP1B” (Molecular Microbiology, 2018):

Columns and labels:
Experiment in all cases: SPR; PBP1B versions immobilised to the chip surface; LpoB injected from 19.5 nM to 10 μM; apparent KD by non-linear regression, at least three independent experiments
Conditions in all cases: both partners purified
[1] = biological target: T1, PBP1B D160C/K437C (E. coli, UniProt P02919 46-844, D160C | K437C)
T1 construct: PBP1B, E. coli, residues 46-844, made by mutagenesis of pDML924; Disulphide bridge between C160 and C437 (no free thiol groups detected); reduced in the SPR assay with 2 mM TCEP; source: E. coli BL21(DE3), purified (membrane extract, HisTrap, thrombin, HiTrap SP ion exchange)
T1 sequence (looked up): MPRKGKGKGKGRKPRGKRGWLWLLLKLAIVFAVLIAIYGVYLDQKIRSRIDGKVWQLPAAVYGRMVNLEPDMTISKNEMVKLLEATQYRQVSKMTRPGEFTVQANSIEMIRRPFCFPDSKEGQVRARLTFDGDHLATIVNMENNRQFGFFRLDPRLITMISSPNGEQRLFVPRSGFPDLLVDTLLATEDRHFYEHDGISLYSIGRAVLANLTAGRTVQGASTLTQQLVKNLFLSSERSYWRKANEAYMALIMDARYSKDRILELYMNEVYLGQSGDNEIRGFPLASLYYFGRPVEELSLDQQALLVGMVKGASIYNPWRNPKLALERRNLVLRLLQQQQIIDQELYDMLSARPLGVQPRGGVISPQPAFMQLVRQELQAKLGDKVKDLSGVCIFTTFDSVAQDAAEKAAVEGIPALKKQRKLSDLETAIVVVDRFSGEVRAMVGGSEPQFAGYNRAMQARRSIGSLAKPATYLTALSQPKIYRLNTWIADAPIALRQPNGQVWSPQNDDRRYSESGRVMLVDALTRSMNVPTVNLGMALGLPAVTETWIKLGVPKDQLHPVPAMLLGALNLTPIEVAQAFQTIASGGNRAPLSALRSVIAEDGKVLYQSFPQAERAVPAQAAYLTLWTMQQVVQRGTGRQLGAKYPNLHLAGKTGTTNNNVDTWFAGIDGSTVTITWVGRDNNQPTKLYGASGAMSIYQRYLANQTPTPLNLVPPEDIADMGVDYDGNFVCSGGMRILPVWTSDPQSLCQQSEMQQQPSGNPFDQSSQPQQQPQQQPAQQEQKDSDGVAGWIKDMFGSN

[2] = biological target: T2, PBP1B D443A (E. coli, UniProt P02919 46-844, D443A)
T2 construct: PBP1B, E. coli, residues 46-844, made by mutagenesis of pDML924; source: E. coli BL21(DE3), purified (membrane extract, HisTrap, thrombin, HiTrap SP ion exchange)
T2 sequence (looked up): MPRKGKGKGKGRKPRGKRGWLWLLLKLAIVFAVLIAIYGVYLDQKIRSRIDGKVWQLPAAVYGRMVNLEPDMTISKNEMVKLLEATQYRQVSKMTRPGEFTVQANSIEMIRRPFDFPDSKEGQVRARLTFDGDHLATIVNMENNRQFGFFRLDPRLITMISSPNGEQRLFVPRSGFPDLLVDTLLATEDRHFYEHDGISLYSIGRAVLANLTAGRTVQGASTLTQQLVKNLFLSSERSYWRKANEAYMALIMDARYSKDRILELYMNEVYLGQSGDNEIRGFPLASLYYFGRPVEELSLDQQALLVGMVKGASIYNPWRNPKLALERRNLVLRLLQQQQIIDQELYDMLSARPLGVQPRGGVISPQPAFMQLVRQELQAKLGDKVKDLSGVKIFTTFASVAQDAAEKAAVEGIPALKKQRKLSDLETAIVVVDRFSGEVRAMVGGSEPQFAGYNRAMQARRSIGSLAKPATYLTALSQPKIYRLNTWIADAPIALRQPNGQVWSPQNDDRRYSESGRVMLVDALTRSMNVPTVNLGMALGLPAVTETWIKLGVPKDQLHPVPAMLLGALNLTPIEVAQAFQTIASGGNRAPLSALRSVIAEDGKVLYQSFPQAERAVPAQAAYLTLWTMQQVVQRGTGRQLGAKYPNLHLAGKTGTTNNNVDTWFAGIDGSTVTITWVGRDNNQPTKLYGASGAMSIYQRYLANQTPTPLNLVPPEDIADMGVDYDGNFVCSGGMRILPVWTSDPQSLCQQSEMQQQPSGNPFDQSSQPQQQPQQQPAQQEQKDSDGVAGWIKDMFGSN

[3] = biological target: T3, PBP1B (wild type, PBP1B^46-844) (E. coli, UniProt P02919 46-844)
T3 construct: PBP1B, E. coli, residues 46-844, encoded on pDML924; Immobilised on the SPR chip as in Egan et al. 2014 / Gray et al. 2015; also called WT PBP1B; WT; source: E. coli BL21(DE3), purified (membrane extract, HisTrap, thrombin, HiTrap SP ion exchange)
T3 sequence (looked up): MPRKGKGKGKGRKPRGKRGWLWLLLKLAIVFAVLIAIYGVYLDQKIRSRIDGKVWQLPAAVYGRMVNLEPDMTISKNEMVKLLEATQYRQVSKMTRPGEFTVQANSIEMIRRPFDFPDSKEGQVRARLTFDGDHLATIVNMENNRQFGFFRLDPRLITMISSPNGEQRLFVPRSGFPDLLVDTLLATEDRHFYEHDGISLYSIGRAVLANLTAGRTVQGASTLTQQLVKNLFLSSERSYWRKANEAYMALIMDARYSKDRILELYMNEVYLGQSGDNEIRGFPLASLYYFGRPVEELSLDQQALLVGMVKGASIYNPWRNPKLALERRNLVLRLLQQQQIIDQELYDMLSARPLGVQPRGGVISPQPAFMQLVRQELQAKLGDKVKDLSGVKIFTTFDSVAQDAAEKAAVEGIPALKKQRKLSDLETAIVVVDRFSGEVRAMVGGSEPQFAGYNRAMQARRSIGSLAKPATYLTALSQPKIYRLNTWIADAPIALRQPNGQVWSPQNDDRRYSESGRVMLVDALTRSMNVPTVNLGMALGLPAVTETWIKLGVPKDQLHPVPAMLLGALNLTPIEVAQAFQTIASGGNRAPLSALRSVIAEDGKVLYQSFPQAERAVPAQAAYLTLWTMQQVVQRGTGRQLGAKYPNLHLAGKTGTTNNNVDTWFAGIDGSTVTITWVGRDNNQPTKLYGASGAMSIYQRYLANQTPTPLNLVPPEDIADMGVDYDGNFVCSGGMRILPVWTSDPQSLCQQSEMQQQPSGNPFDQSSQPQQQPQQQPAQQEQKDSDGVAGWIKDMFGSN

Kd [1]: 3970 nM
Kd [2]: 289 nM
Kd [3]: 491 nM
B1: LpoB (natural protein, E. coli)
chain: VGQREPAPVEEVKPAPEQPAEPQQPVPTVPSVPTIPQQPGPIEHEDQTAPPAPHIRHYDWNGAMQPMVSKMLGADGVTAGSVLLVDSVNNRTNGSLNAAEATETLRNALANNGKFTLVSAQQLSMAKQQLGLSPQDSLGTRSKAIGIARNVGAHYVLYSSASGNVNAPTLQMQLMLVQTGEIIWSGKGAVSQQ
notes: LpoB, E. coli; also called lipoprotein LpoB; source: E. coli BL21(DE3), purified (HisTrap, Superdex 200), as in Egan et al. 2014
